Experimental data taken from the MegaScale stability set (Tsuboyama et al. 2023).

B1: 2K2A (parent)
chain: ELREAFRLYDKEGNGYISTDVMREILAELDETLSSEDLDAMIDEIDADGSGTVDFEEFMGVMT

Variants of: B1
Assay: folding stability dG (cDNA display proteolysis); higher = more stable
Settings: PBS, room temperature

| Variant | folding stability dG [kJ/mol] |
| --- | --- |
| ELREAFRLYDKEGNGYISTDVMREILAELDETLSSEDLDAMIDEIDADGCGTVDFEEFMGVMT [S50C] | 5.79 |
| ELREAFRLYDKEGNGYISTDVMREILAELDETLSSEDLDAMIDEIDADGDGTVDFEEFMGVMT [S50D] | 5.57 |
| ELREAFRLYDKEGNGYISTDVMREILAELDETLSSEDLDAMIDEIDADGAGTVDFEEFMGVMT [S50A] | 4.66 |
| ELREAFRLYDKEGNGYISTDVMREILAELDETLSSEDLDAMIDEIDACGSGTVDFEEFMGVMT [D48C] | 5.84 |
| ELREAFRLYDKEGNGYISTDVMREILAELDETLSSEDLDAMIDEIDAVGSGTVDFEEFMGVMT [D48V] | 4.95 |
| ELREAFRLYDKEGNGYISTDVMREILAELDETLSSEDLDAMIDEIDAYGSGTVDFEEFMGVMT [D48Y] | 5.45 |
| ELREAFRLYDKEGNGYISTDVMREILAELDETLSSEDLDAMIDEIDAWGSGTVDFEEFMGVMT [D48W] | 5.19 |
| ELREAFRLYDKEGNGYISTDVMREILAELDETLSSEDLDAMIDEIDALGSGTVDFEEFMGVMT [D48L] | 5.79 |
| ELREAFRLYDKEGNGYISTDVMREILAELDETLSSEDLDAMIDEIDAIGSGTVDFEEFMGVMT [D48I] | 5.2 |
| ELREAFRLYDKEGNGYISTDVMREILAELDETLSSEDLDAMIDEIDAFGSGTVDFEEFMGVMT [D48F] | 5.82 |
| ELREAFRLYDKEGNGYISTDVMREILAELDETLSSEDLDAMIDEIDAQGSGTVDFEEFMGVMT [D48Q] | 5.46 |
| ELREAFRLYDKEGNGYISTDVMREILAELDETLSSEDLDAMIDEIDATGSGTVDFEEFMGVMT [D48T] | 6.71 |
| ELREAFRLYDKEGNGYISTDVMREILAELDETLSSEDLDAMIDEIDAMGSGTVDFEEFMGVMT [D48M] | 5.59 |
| ELREAFRLYDKEGNGYISTDVMREILAELDETLSSEDLDAMIDEIDARGSGTVDFEEFMGVMT [D48R] | 6.36 |
| ELREAFRLYDKEGNGYISTDVMREILAELDETLSSEDLDAMIDEIDAEGSGTVDFEEFMGVMT [D48E] | 6.2 |
| ELREAFRLYDKEGNGYISTDVMREILAELDETLSSEDLDAMIDEIDAHGSGTVDFEEFMGVMT [D48H] | 6.31 |
| ELREAFRLYDKEGNGYISTDVMREILAELDETLSSEDLDAMIDEIDAAGSGTVDFEEFMGVMT [D48A] | 6.2 |
| ELREAFRLYDKEGNGYISTDVMREILAELDETLSSEDLDAMIDEIDASGSGTVDFEEFMGVMT [D48S] | 6.59 |
| ELREAFRLYDKEGNGYISTDVMREILAELDETLSSEDLDAMIDEIDAKGSGTVDFEEFMGVMT [D48K] | 6.58 |
| ELREAFRLYDKEGNGYISTDVMREILAELDETLSSEDLDAMIDEIDANGSGTVDFEEFMGVMT [D48N] | 7.68 |
| ELREAFRLYDKEGNGYISTDVMREILAELDETLSSEDLDAMIDEIDAPGSGTVDFEEFMGVMT [D48P] | 1.95 |

| Variant | folding stability dG [kJ/mol] |
| --- | --- |
| ELREAFRLYDKEGNGYISTDVMREILAELDETLSSEDLDAMIDEIDAGGSGTVDFEEFMGVMT [D48G] | 5.74 |
| ELREAFRLYDKEGNGYISTDVMREILAELDETLSSEDLDAMIDEISADGSGTVDFEEFMGVMT [D46S] | 4.03 |
| ELREAFRLYDKEGNGYISTDVMREILAELDETLSSEDLDAMIDEILADGSGTVDFEEFMGVMT [D46L] | 3 |
| ELREAFRLYDKEGNGYISTDVMREILAELDETLSSEDLDAMIDEIQADGSGTVDFEEFMGVMT [D46Q] | 2.78 |
| ELREAFRLYDKEGNGYISTDVMREILAELDETLSSEDLDAMIDEIEADGSGTVDFEEFMGVMT [D46E] | 2.43 |
| ELREAFRLYDKEGNGYISTDVMREILAELDETLSSEDLDAMIDEICADGSGTVDFEEFMGVMT [D46C] | 3.57 |
| ELREAFRLYDKEGNGYISTDVMREILAELDETLSSEDLDAMIDEIKADGSGTVDFEEFMGVMT [D46K] | 3.54 |
| ELREAFRLYDKEGNGYISTDVMREILAELDETLSSEDLDAMIDEIAADGSGTVDFEEFMGVMT [D46A] | 3.59 |
| ELREAFRLYDKEGNGYISTDVMREILAELDETLSSEDLDAMIDEIWADGSGTVDFEEFMGVMT [D46W] | 2.63 |
| ELREAFRLYDKEGNGYISTDVMREILAELDETLSSEDLDAMIDEINADGSGTVDFEEFMGVMT [D46N] | 6.1 |
| ELREAFRLYDKEGNGYISTDVMREILAELDETLSSEDLDAMIDEIIADGSGTVDFEEFMGVMT [D46I] | 3.33 |
| ELREAFRLYDKEGNGYISTDVMREILAELDETLSSEDLDAMIDEIVADGSGTVDFEEFMGVMT [D46V] | 4.12 |
| ELREAFRLYDKEGNGYISTDVMREILAELDETLSSEDLDAMIDEIPADGSGTVDFEEFMGVMT [D46P] | -0.649 |
| ELREAFRLYDKEGNGYISTDVMREILAELDETLSSEDLDAMIDEITADGSGTVDFEEFMGVMT [D46T] | 3.46 |
| ELREAFRLYDKEGNGYISTDVMREILAELDETLSSEDLDAMIDEIGADGSGTVDFEEFMGVMT [D46G] | 2.43 |
| ELREAFRLYDKEGNGYISTDVMREILAELDETLSSEDLDAMIDEIYADGSGTVDFEEFMGVMT [D46Y] | 2.71 |
| ELREAFRLYDKEGNGYISTDVMREILAELDETLSSEDLDAMIDEIMADGSGTVDFEEFMGVMT [D46M] | 2.71 |
| ELREAFRLYDKEGNGYISTDVMREILAELDETLSSEDLDAMIDEIRADGSGTVDFEEFMGVMT [D46R] | 3.34 |
| ELREAFRLYDKEGNGYISTDVMREILAELDETLSSEDLDAMIDEIFADGSGTVDFEEFMGVMT [D46F] | 3.04 |
| ELREAFRLYDKEGNGYISTDVMREILAELDETLSSEDLDAMIDEIHADGSGTVDFEEFMGVMT [D46H] | 3.4 |
| ELREAFRLYDKEGNGYISTDVMREILAELDETLSSEDLDAMIDEIDTDGSGTVDFEEFMGVMT [A47T] | 7.69 |
